Data set [1] deals with substrate protein S1 (single N-terminal Smt3 domain, 65-amino-acid charged flexible tail, C-terminal 11 amino acid ssrA tag).
The test system of data set [2] is substrate protein S2-35 (two Smt3 domains separated by a 35 amino acid linker, charged tail, C-terminal ssrA tag).
The subject of data set [3] is substrate protein S2-148 (two Smt3 domains separated by an extended 148 amino acid linker, charged tail, C-terminal ssrA tag).

Turning to “covalently-linked trimer of an N-terminal truncated ClpX variant (ClpX-ΔN3)”, in data set [1], the “ClpX-dependent ionic current ramp (ramping state iii), average current” value was “a progressive downward current ramp reaching an average of ~10 pA with a median duration of 4.3 seconds”; the “ClpX-dependent ionic current ramp (ramping state iii), median duration” value is “a progressive downward current ramp reaching an average of ~10 pA with a median duration of 4.3 seconds”; the “ClpX-dependent ionic current ramp (ramping state iii), number of events” value was “This current ramp was observed with protein S1 a total of 45 times over ~5.5 hours of experimentation when ClpX and ATP were present; in contrast, the ramp was never observed following state ii when ClpX and ATP were absent from the trans solution over ~2.3 hours of experimentation”. In data set [2], the “second ramping state vi, ionic current” value is on record as “This was followed by a ~8.5 pA state (FIG. 2C, vi) that closely resembled ramping state iii”; the “translocation events that included ramping state iii, number of events” value is “Translocation events that included ramping state iii were observed 62 times for protein S2-35 (7.3 hours of experimentation) ... when ClpX and ATP were present. In the absence of ClpX/ATP, these ramping states were never observed for S2-35 (1.7 hours of experimentation)”. Also, the “translocation events that included ramping state iii, number of events” value in data set [3] was “Translocation events that included ramping state iii were observed ... 66 times for protein S2-148 (4.3 hours of experimentation), when ClpX and ATP were present. In the absence of ClpX/ATP, these ramping states were never observed ... for S2-148 (1.2 hours of experimentation)”.

The values above are taken from patent US20220396758.
